In patent US20200138970A1 (Bayer, published 2020):

How the values were obtained:
[1] = molecular target: T1, human B7H3 on cancer cell lines (human, UniProt Q5ZPR3 29-534); experiment: cell-based or functional assay
T1 sequence (looked up): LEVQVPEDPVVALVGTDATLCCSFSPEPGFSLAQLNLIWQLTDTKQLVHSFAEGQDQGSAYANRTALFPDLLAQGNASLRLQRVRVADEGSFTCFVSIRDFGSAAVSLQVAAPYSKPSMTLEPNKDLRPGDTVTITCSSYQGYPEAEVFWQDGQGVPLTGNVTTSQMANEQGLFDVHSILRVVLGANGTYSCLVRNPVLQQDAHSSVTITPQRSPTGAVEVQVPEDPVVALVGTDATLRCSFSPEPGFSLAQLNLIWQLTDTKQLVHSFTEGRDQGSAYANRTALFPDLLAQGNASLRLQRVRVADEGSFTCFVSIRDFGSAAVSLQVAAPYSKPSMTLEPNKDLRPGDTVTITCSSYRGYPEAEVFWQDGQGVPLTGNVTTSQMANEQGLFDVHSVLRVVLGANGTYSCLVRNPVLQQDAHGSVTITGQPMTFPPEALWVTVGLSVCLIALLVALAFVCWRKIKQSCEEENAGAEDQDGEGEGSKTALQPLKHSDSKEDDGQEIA

[2] = molecular target: T1, human B7H3 on cancer cell lines; experiment: cell-based or functional assay; remark: listed apart in the source
[3] = molecular target: T2, TPP-3760, B7H3 long, human (R&D Systems 2318-B3/CF) (human, UniProt Q5ZPR3 27-461); experiment: ELISA, IgG captured on anti-human IgG Fc, antigen 37 ng/ml, anti-His HRP detection
T2 construct: Bought protein; also called B7H3 (RnDSystems, 2318-B3-050/CF); human B7H3
T2 sequence: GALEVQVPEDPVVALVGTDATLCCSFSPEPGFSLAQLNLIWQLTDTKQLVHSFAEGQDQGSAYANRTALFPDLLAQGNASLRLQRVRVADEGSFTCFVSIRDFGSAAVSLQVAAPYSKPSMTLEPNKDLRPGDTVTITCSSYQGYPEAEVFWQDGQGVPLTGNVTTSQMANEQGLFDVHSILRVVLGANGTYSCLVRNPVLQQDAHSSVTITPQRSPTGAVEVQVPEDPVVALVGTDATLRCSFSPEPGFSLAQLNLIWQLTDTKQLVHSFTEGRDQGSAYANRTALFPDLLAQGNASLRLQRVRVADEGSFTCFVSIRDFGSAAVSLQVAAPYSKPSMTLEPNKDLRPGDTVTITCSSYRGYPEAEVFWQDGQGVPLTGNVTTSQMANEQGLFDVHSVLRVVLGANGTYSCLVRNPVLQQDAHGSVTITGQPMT
Description: (§1) Binding of the antibodies to human B7H3 and to human B7H2 and B7H4 was characterized using ELISAs. […] After washing once with PSB, 0.05% Tween, the plate was blocked with 100% Smart Block (Candor) for one hour at 37° C. The antibody to be tested was then attached to the plate (2 μg/ml IgG in PBS, 0.05% Tween, 10% Smart Block; 1 hour, room temperature). […] After washing three times, the plate was incubated with Amplex Red for 30 minutes and then read.

[4] = molecular target: T3, human B7H2 (RnDSystems, 8206-B7) (human, UniProt O75144 19-258, limits assumed); experiment: as above
T3 construct: Bought protein; His tag implied by anti-His detection
T3 sequence (looked up): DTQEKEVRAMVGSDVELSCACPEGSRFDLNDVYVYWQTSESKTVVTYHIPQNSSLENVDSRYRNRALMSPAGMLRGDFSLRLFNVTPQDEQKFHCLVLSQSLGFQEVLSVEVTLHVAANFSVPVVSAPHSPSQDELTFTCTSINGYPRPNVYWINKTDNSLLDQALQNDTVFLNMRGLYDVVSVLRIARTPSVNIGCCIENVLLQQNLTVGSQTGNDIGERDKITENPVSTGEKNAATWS
Description: as §1

[5] = molecular target: T4, human B7H4 (RnDSystems, 6576-B7) (human, UniProt Q7Z7D3 29-258, limits assumed); experiment: as above
T4 construct: Bought protein; His tag implied by anti-His detection
T4 sequence (looked up): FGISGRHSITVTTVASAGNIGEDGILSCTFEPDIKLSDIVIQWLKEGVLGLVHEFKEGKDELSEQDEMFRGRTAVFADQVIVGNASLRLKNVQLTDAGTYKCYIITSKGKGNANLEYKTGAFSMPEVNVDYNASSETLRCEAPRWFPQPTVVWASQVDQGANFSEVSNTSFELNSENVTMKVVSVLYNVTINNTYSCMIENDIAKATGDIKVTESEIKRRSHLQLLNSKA
Description: as §1

[6] = molecular target: T1, human B7H3 on cancer cell lines; experiment: flow cytometry on A498 cells, dose response from 10 ug/mL (1:5 dilution), FITC secondary antibody
Description: A dose response curve (1:5 dilution) was generated. Following incubation, 200 μL of ice-cold FACS buffer were pipetted in and the cell suspension was centrifuged at 4° C., 400 g for 4 min. The cell pellet was washed with 300 μL of ice-cold FACS buffer prior to resuspending the pellet obtained in 100 μL of FACS buffer and again incubating for 30 min on ice with secondary antibody (monoclonal anti-kappa light chains FITC antibody, Sigma, No. SAB4700605) in a 1:10 dilution. Subsequently, the cells were washed with ice-cold FACS buffer and adjusted to a cell concentration of 0.5×10⁶ cells/mL before carrying out the flow cytometry using a Guava flow cytometer (Millipore). Propidium iodide (final concentration 1 μg/mL) was used for the live staining. With the aid of the background-corrected geometric mean fluorescence values, the IC50 value of the antibody to be investigated was determined.

B1: ADC Example 208-6501 (antibody, human IgG1, lambda, V domains shown)
VH: EVQLLESGGGLVQPGGSLRLSCAASGFTFSSYGMHWVRQAPGKGLEWVSAISGSGGSTYYADSVKGRFTISRDNSKNTLYLQMNSLRAEDTAVYYCARGSNYLGMDVWGQGTLVTVSS
VL: QSVLTQPPSASGTPGQRVTISCSGSSSNIGRNIVNWYQQLPGTAPKLLIYRSNQRPSGVPDRFSGSKSGTSASLAISGLRSEDEADYYCQTWGTGWVFGGGTKLTVLG
modifications: drug-linker from Intermediate F104 on Cys, sites not stated
In the case of B1, the “A498 CTG (IC 50 M)” value [1] is reported as < 30 pM, the “MCF-7 CTG (IC50 M)” value [1] is reported as 161 pM and the “U251 CTG (IC50 M)” value [2] is reported as 295 pM.

B2: ADC Example 284-6501 (antibody, human IgG1, lambda, V domains shown)
VH: EVQLLESGGGLVQPGGSLRLSCAASGFTFSSYGMHWVRQAPGKGLEWVSAISGSGGSTYYADSVKGRFTISRDNSKNTLYLQMNSLRAEDTAVYYCARGSNYLGMDVWGQGTLVTVSS
VL: QSVLTQPPSASGTPGQRVTISCSGSSSNIGRNIVNWYQQLPGTAPKLLIYRSNQRPSGVPDRFSGSKSGTSASLAISGLRSEDEADYYCQTWGTGWVFGGGTKLTVLG
modifications: drug-linker from Intermediate F284 on Cys, sites not stated
In the case of B2, the “U251 CTG (IC50 M)” value [2] is reported as 62900 pM.

B3: ADC Example 297-6501 (antibody, human IgG1, lambda, V domains shown)
VH: EVQLLESGGGLVQPGGSLRLSCAASGFTFSSYGMHWVRQAPGKGLEWVSAISGSGGSTYYADSVKGRFTISRDNSKNTLYLQMNSLRAEDTAVYYCARGSNYLGMDVWGQGTLVTVSS
VL: QSVLTQPPSASGTPGQRVTISCSGSSSNIGRNIVNWYQQLPGTAPKLLIYRSNQRPSGVPDRFSGSKSGTSASLAISGLRSEDEADYYCQTWGTGWVFGGGTKLTVLG
modifications: drug-linker from Intermediate F297 on Cys, sites not stated
In the case of B3, the “U251 CTG (IC50 M)” value [2] is reported as 704 pM.

B4: ADC Example 281-6501 (antibody, human IgG1, lambda, V domains shown)
VH: EVQLLESGGGLVQPGGSLRLSCAASGFTFSSYGMHWVRQAPGKGLEWVSAISGSGGSTYYADSVKGRFTISRDNSKNTLYLQMNSLRAEDTAVYYCARGSNYLGMDVWGQGTLVTVSS
VL: QSVLTQPPSASGTPGQRVTISCSGSSSNIGRNIVNWYQQLPGTAPKLLIYRSNQRPSGVPDRFSGSKSGTSASLAISGLRSEDEADYYCQTWGTGWVFGGGTKLTVLG
modifications: drug-linker from Intermediate F281 on Cys, sites not stated
In the case of B4, the “U251 CTG (IC50 M)” value [2] is reported as 29900 pM.

B5: ADC Example 208-6515 (antibody, human IgG1, lambda, V domains shown)
VH: EVQLLESGGGLVQPGGSLRLSCAASGFTFSSYGMHWVRQVPGKGLEWVSAISGSGGTTYYADSVKGRFTISRDNSKNTLYLQMNSLRAEDTAVYYCARGGYHFLFDYWGQGTLVTVSS
VL: QSVLTQPPSASGTPGQRVTISCSGSSSNIGSNTVNWYQQLPGTAPKLLIYRNDQRLLGVPDRFSGSKSGTSASLAISGLRSEDEADYYCQSYDSSLSGWVFGGGTKLTVLG
modifications: drug-linker from Intermediate F104 on Cys, sites not stated
In the case of B5, the “A498 CTG (IC 50 M)” value [1] is reported as 688 pM, the “MCF-7 CTG (IC50 M)” value [1] is reported as 338 pM and the “U251 CTG (IC50 M)” value [2] is reported as 410 pM.

B6: ADC Example 173-6515 (antibody, human IgG1, lambda, V domains shown)
VH: EVQLLESGGGLVQPGGSLRLSCAASGFTFSSYGMHWVRQVPGKGLEWVSAISGSGGTTYYADSVKGRFTISRDNSKNTLYLQMNSLRAEDTAVYYCARGGYHFLFDYWGQGTLVTVSS
VL: QSVLTQPPSASGTPGQRVTISCSGSSSNIGSNTVNWYQQLPGTAPKLLIYRNDQRLLGVPDRFSGSKSGTSASLAISGLRSEDEADYYCQSYDSSLSGWVFGGGTKLTVLG
modifications: drug-linker from Intermediate F173 on Cys, sites not stated
B6 was tested, and the “A498 CTG (IC 50 M)” value [1] was > 307000 pM and the “Caki-2 CTG (IC50 M)” value [1] was 2.57 nM.

B7: ADC Example 208-6499 (antibody, human IgG1, lambda, V domains shown)
VH: EVQLLESGGGLVQPGGSLRLSCAASGFTFRDFYMNWIRQAPGKGLEWVSSISASGKYTYYADSVKGRFTISRDNSKNTLYLQMNSLRAEDTAVYYCAREWGYCTNDVCRNWFDPWGQGTLVTVSS
VL: QSVLTQPPSASGTPGQRVTISCSGGYSNVGGNNVNWYQQLPGTAPKLLIYGNSNRPSGVPDRFSGSKSGTSASLAISGLRSEDEADYYCQSYDSSLSGSVFGGGTKLTVLG
modifications: drug-linker from Intermediate F104 on Cys, sites not stated
For B7, the “MCF-7 CTG (IC50 M)” value [1] was 135 pM.

B8: ADC Example 208-6502 (antibody, human IgG1, lambda, V domains shown)
VH: EVQLLESGGGLVQPGGSLRLSCAASGFTFSTYGMHWVRQAPGKGLEWVSAISGSGGSTYYADSVKGRFTISRDNSKNTLYLQMNSLRAEDTAVYYCTRGYYYYGMDVWGQGTLVTVSS
VL: QSVLTQPPSASGTPGQRVTISCSGGSSNIGSNPVNWYQQLPGTAPKLLIYGNSKRPSGVPDRFSGSKSGTSASLAISGLRSEDEADYYCQSYDSSLSGWVFGGGTKLTVLG
modifications: drug-linker from Intermediate F104 on Cys, sites not stated
In the case of B8, the “A498 CTG (IC 50 M)” value [1] is reported as 66.7 pM and the “U251 CTG (IC50 M)” value [2] is reported as 933 pM.

B9: ADC Example 194-6502 (antibody, human IgG1, lambda, V domains shown)
VH: EVQLLESGGGLVQPGGSLRLSCAASGFTFSTYGMHWVRQAPGKGLEWVSAISGSGGSTYYADSVKGRFTISRDNSKNTLYLQMNSLRAEDTAVYYCTRGYYYYGMDVWGQGTLVTVSS
VL: QSVLTQPPSASGTPGQRVTISCSGGSSNIGSNPVNWYQQLPGTAPKLLIYGNSKRPSGVPDRFSGSKSGTSASLAISGLRSEDEADYYCQSYDSSLSGWVFGGGTKLTVLG
modifications: drug-linker from Intermediate F194 on Lys, sites not stated
With B9 the “A498 CTG (IC 50 M)” value [1] was 2930 pM and the “MCF-7 CTG (IC50 M)” value [1] was 1000 pM.

B10: ADC Example 274-6499 (antibody, human IgG1, lambda, V domains shown)
VH: EVQLLESGGGLVQPGGSLRLSCAASGFTFRDFYMNWIRQAPGKGLEWVSSISASGKYTYYADSVKGRFTISRDNSKNTLYLQMNSLRAEDTAVYYCAREWGYCTNDVCRNWFDPWGQGTLVTVSS
VL: QSVLTQPPSASGTPGQRVTISCSGGYSNVGGNNVNWYQQLPGTAPKLLIYGNSNRPSGVPDRFSGSKSGTSASLAISGLRSEDEADYYCQSYDSSLSGSVFGGGTKLTVLG
modifications: drug-linker from Intermediate F274 on Cys, sites not stated
With B10 the “U251 CTG (IC50 M)” value [2] was 1200 pM.

B11: ADC Example 257-6499 (antibody, human IgG1, lambda, V domains shown)
VH: EVQLLESGGGLVQPGGSLRLSCAASGFTFRDFYMNWIRQAPGKGLEWVSSISASGKYTYYADSVKGRFTISRDNSKNTLYLQMNSLRAEDTAVYYCAREWGYCTNDVCRNWFDPWGQGTLVTVSS
VL: QSVLTQPPSASGTPGQRVTISCSGGYSNVGGNNVNWYQQLPGTAPKLLIYGNSNRPSGVPDRFSGSKSGTSASLAISGLRSEDEADYYCQSYDSSLSGSVFGGGTKLTVLG
modifications: drug-linker from Intermediate F257 on Cys, sites not stated
B11 was tested, and the “A498 CTG (IC 50 M)” value [1] was 247 pM, the “Caki-2 CTG (IC50 M)” value [1] was < 0.03 nM and the “U251 CTG (IC50 M)” value [2] was 73.6 pM.

B12: TPP-6502 (antibody, human IgG1, lambda, V domains shown)
VH: EVQLLESGGGLVQPGGSLRLSCAASGFTFSTYGMHWVRQAPGKGLEWVSAISGSGGSTYYADSVKGRFTISRDNSKNTLYLQMNSLRAEDTAVYYCTRGYYYYGMDVWGQGTLVTVSS
VL: QSVLTQPPSASGTPGQRVTISCSGGSSNIGSNPVNWYQQLPGTAPKLLIYGNSKRPSGVPDRFSGSKSGTSASLAISGLRSEDEADYYCQSYDSSLSGWVFGGGTKLTVLG
B12 was tested, and the “Quotient signal (B7)/signal (buffer)” value [3] was 126, the “Quotient signal (B7)/signal (buffer)” value [4] was < 1.5 and the “Quotient signal (B7)/signal (buffer)” value [5] was < 1.5. For the same binder, the EC50 [6] was 0.143 nM.
